The values that follow come from article PMC6172220, “Calcineurin B homologous protein 3 binds with high affinity to the CHP binding domain of the human sodium/proton exchanger NHE1” (Scientific Reports, 2006).

A word on the stoichiometry N: it is a count of units in the complex or per binding partner. A word on the Kd: it is the constant that tells how readily two partners part at equilibrium.

The labels stand for the following.
B1: human calcineurin B homologous protein 3 (CHP3), hexa-histidine tagged (natural protein, UniProt Q96BS2 2-214, looked up)
chain: GAAHSASEEVRELEGKTGFSSDQIEQLHRRFKQLSGDQPTIRKENFNNVPDLELNPIRSKIVRAFFDNRNLRKGPSGLADEINFEDFLTIMSYFRPIDTTMDEEQVELSRKEKLRFLFHMYDSDSDGRITLEEYRNVVEELLSGNPHIEKESARSIADGAMMEAASVCMGQMEPDQVYEGITFEDFLKIWQGIDIETKMHVRFLNMETMALCH
B2: human calcineurin B homologous protein 3 (CHP3), hexa-histidine tagged (natural protein, UniProt Q96BS2 2-214, looked up)
chain: B1 chain
modifications: fluorescent label NT647, randomly attached, labelling efficiency about 30% (MST only)
B3: MBP-CBD: CHP-binding region of human NHE1 (residues 503-545) fused to maltose-binding protein at its amino-terminus (domain or fragment, UniProt P19634 503-545, looked up)
chain: VDLLAVKKKQETKRSINEEIHTQFLDHLLTGIEDICGHYGHHH
notes: also called MBP-CBD^NHE1; NHE1-CBD; source: E. coli BL21 (DE3), purified (IMAC, SEC on Superdex 200); not shown: MBP, N-terminal, kept; His8, C-terminal, kept
B4: MBP-CBD: CHP-binding region of human NHE1 (residues 503-545) fused to maltose-binding protein (domain or fragment, UniProt P19634 503-545, looked up)
chain: B3 chain
notes: The TEV site is printed without Tyr; No site for removal of the C-terminal His8 is described; also called MBP-CBD^NHE1; NHE1-CBD; source: E. coli BL21 (DE3), purified (IMAC, SEC); not shown: MBP (E. coli malE; UniProtKB P0AEX9 residues 27-393), N-terminal, kept

Holding throughout (details): both partners purified
Assay [1] deals with B3. In words: ITC; CHP3 (nominal 200 uM) in the syringe injected into MBP-CBD (nominal 20 uM) in the cell, 57 injections, 25 °C; 20 mM HEPES, 150 mM NaCl, 10 mM MgCl2, 5 mM TCEP, pH 7.2; biological triplicates, raw data: each data set fitted freely (KD, dH, n, offset). (ITC needs no label: the signal is the heat of the interaction.)
Assay [2] has as its target B3. Put plainly: ITC; the same titrations (CHP3 in the syringe, MBP-CBD in the cell, 25 °C, ITC buffer pH 7.2) refitted one by one after the triple-shift correction: corrected active concentrations of CHP3 and MBP-CBD, dH fixed to the average of the raw fits, n = 1 by the correction.
For assay [3], the target named is B4. Put plainly: SEC; analytical SEC, Superdex 200 10/300 GL; 20 uM samples mixed equimolar (250 ul each); 20 mM HEPES, 150 mM NaCl, 1 mM TCEP, pH 7.2; peak fractions checked by SDS-PAGE.
Assay [4] has as its target B1. Put plainly: ITC; CHP3 (nominal 200 uM) in the syringe injected into MBP-CBD (nominal 20 uM) in the cell, 57 injections, 25 °C; 20 mM HEPES, 150 mM NaCl, 10 mM MgCl2, 5 mM TCEP, pH 7.2; biological triplicates, raw data: each data set fitted freely (KD, dH, n, offset).
Assay [5] addresses B1. Put plainly: ITC; the same titrations (CHP3 in the syringe, MBP-CBD in the cell, 25 °C, ITC buffer pH 7.2) refitted one by one after the triple-shift correction: corrected active concentrations of CHP3 and MBP-CBD, dH fixed to the average of the raw fits, n = 1 by the correction.
For assay [6], the target named is B2. In words: ITC; 200 uM CHP3 in the syringe injected into 20 uM MBP-CBD in the cell, 57 injections, 25 °C; 20 mM HEPES, 150 mM NaCl, 10 mM MgCl2, 5 mM TCEP, pH 7.2; global fit of three concentration-corrected biological replicates assuming n = 1.
The target in assay [7] is B2. In words: MST; NT647-labelled CHP3 at 10 nM, MBP-CBD titrated in 16 steps of 1:1 dilution; 20 mM HEPES, 150 mM NaCl, 0.05% Tween-20, 10 mM MgCl2, 5 mM TCEP, pH 7.2; 22 °C; bimolecular binding model; three biological replicates of five technical replicates each.

Several values for one entry are separate records, joined by “and”; a condition that tells them apart may be missing. Equal values may be shown once.

With B1, the “stoichiometry N” value in assay [1] was 0.97 and 1.2 and 1.1 and 1.09; in assay [2], 1.
For the molecule B2, the “stoichiometry N” value in assay [3] was 1.
Consider B3, for which the dissociation constant Kd in assay [4] was 3 nM and 2.4 nM and 4.5 nM and 3.3 nM; in assay [5] it was 3.1 nM and 2.1 nM and 5.1 nM and 3.4 nM.
Consider B4, for which the dissociation constant Kd in assay [6] was 3 nM; in assay [7], 62.7 nM and 54.8 nM and 49 nM and 55.5 nM.
